B1: EEHEE_rd4_0647 (parent)
chain: MQVTWGNVTVTFSNPEEAKKYAEKVARKLGGQVELHNGQFRIK

Variants of: B1
Assay: folding stability dG (cDNA display proteolysis); higher = more stable
Conditions: PBS, room temperature

Variant | folding stability dG
MQVTWGNVTVTFSNPEEAKKYAEKVARKLGGQVELHNGTFRIK | 2.69 kcal/mol
MQVTWGNVTVTFSNPEEAKKYAEKVARKLGGQVELHNGCFRIK | 2.68 kcal/mol
MQVTWGNVTVTKSNPEEAKKYAEKVARKLGGQVELHNGQFRIK | 0.98 kcal/mol
MQVTWGNVTVTMSNPEEAKKYAEKVARKLGGQVELHNGQFRIK | 1.38 kcal/mol
MQVTWGNVTVTFSNPEEAKKYAEKVARKLGAQVELHNGQFRIK | 2.62 kcal/mol
MQVTWGNVTVTFSNPEEAKKYAEKVARKLGMQVELHNGQFRIK | 2.53 kcal/mol
MQVTWGNVTVTFSNPEEAKKYAEKVARLLGGQVELHNGQFRIK | 3.15 kcal/mol
MQVTWGNVTVTFSNPEEAKKYAEKVARKLGGQVELHNGQFRCK | 1.95 kcal/mol
MQVTWGNVTVTFSNPEEAKKYAEKVARKLGGQVELHNGQFLIK | 3.16 kcal/mol
MQVTWGNVTVTFSNPEEAKKYAEKVARKLGGQVELHNGQFRIN | 2.59 kcal/mol
MQVTWGNVTVTFSNPEEAKKYAEKVARKLGGQVELHNGQFRII | 3.52 kcal/mol
MQVTWGNVTVTFSNPEEAKKYAEKVARKLGGQVELHNGQFRIS | 2.64 kcal/mol
MQVTWGNVTVTFSNPEEAKKYAEKVARKLGGQVELHNGQLRIK | 2.85 kcal/mol
MQVTWGNVTVTFSNPEEAKKYDEKVARKLGGQVELHNGQFRIK | -0.372 kcal/mol
MQHTWGNVTVTFSNPEEAKKYAEKVARKLGGQVELHNGQFRIK | 0.343 kcal/mol
MQITWGNVTVTFSNPEEAKKYAEKVARKLGGQVELHNGQFRIK | 1.61 kcal/mol
TQVTWGNVTVTFSNPEEAKKYAEKVARKLGGQVELHNGQFRIK | 3.28 kcal/mol
VQVTWGNVTVTFSNPEEAKKYAEKVARKLGGQVELHNGQFRIK | 3.11 kcal/mol
CQVTWGNVTVTFSNPEEAKKYAEKVARKLGGQVELHNGQFRIK | 3.6 kcal/mol
RQVTWGNVTVTFSNPEEAKKYAEKVARKLGGQVELHNGQFRIK | 2.57 kcal/mol

Variant | folding stability dG
MQVTWGNVTVTFSNPEEAKKYAEKVARKLGGQVELANGQFRIK | 2.51 kcal/mol
MQVTWGNVTVTFSNPEEAKKYAEKVARKLGGQVELTNGQFRIK | 2.6 kcal/mol
MQVTWGNVTVTFSNPEEAKKYAEKVARKLGGQVELNNGQFRIK | 2.33 kcal/mol
MQVTWGNVTVTFSNPEEAKKYAEKVARKLGGQVELGNGQFRIK | 1.8 kcal/mol
MQVTWGNVTVTFSNPEEAKKYAEKVARKLGGQVELVNGQFRIK | 3.35 kcal/mol
MQVTWGNVTVTFSNPEEAKKYAESVARKLGGQVELHNGQFRIK | 2.73 kcal/mol
MQVTWGNVTVTFSNPEEAKKYAECVARKLGGQVELHNGQFRIK | 3.81 kcal/mol
MQVDWGNVTVTFSNPEEAKKYAEKVARKLGGQVELHNGQFRIK | 0.672 kcal/mol
MQVTWGNVTVTFSNPEEAKKYAEKVARKLGGQVELHNSQFRIK | 1.6 kcal/mol
MQVTWGNVTVTFSNPEEAKIYAEKVARKLGGQVELHNGQFRIK | 2.77 kcal/mol
MQVTWGNVTVTFSNPEEAKFYAEKVARKLGGQVELHNGQFRIK | 2.41 kcal/mol
MQVTWGNVLVTFSNPEEAKKYAEKVARKLGGQVELHNGQFRIK | 2.22 kcal/mol
MQVTWGNVRVTFSNPEEAKKYAEKVARKLGGQVELHNGQFRIK | 2.06 kcal/mol
MQVTWGNVTVTFSNHEEAKKYAEKVARKLGGQVELHNGQFRIK | 2.88 kcal/mol
MQVTWGNVTVTFSNSEEAKKYAEKVARKLGGQVELHNGQFRIK | 2.79 kcal/mol
MQVTWGNVTVTFSNPAEAKKYAEKVARKLGGQVELHNGQFRIK | 2.78 kcal/mol
MQVTWGNVTVTFSNPEEAKKYAEKVARKLGGLVELHNGQFRIK | 2.74 kcal/mol
MQVTWGNVTVTFSNPEEAKKYAEKVARKLGGIVELHNGQFRIK | 3.27 kcal/mol
MQVTWGNVTVTFSNPEEAKKYAEKVARKLGGRVELHNGQFRIK | 2.89 kcal/mol
MQVTWGNVTVTFSNPEEQKKYAEKVARKLGGQVELHNGQFRIK | 0.42 kcal/mol

Variant | folding stability dG
MQVTWGNVTVTFSNPEEPKKYAEKVARKLGGQVELHNGQFRIK | -0.247 kcal/mol
MQVTWGNVTVTFSNPEEDKKYAEKVARKLGGQVELHNGQFRIK | -0.206 kcal/mol
MQVTWPNVTVTFSNPEEAKKYAEKVARKLGGQVELHNGQFRIK | 0.79 kcal/mol
MQVTWENVTVTFSNPEEAKKYAEKVARKLGGQVELHNGQFRIK | 1.96 kcal/mol
MQVTWGNVTKTFSNPEEAKKYAEKVARKLGGQVELHNGQFRIK | 2.66 kcal/mol
MQVTWGNVTVTFSNPEEAKKYAEKVAKKLGGQVELHNGQFRIK | 2.88 kcal/mol
MQVTWGNVTVTFHNPEEAKKYAEKVARKLGGQVELHNGQFRIK | 2.62 kcal/mol
MQVTWGNVTVTFLNPEEAKKYAEKVARKLGGQVELHNGQFRIK | 2.57 kcal/mol
MQVTWGNVTVTFSNPEEAKKYAEKVARKLGGQVEMHNGQFRIK | 2.82 kcal/mol
MQVTWGNVTVTFSNPEEAKKYAEKVARKLGGQVRLHNGQFRIK | 1.78 kcal/mol
MQVTWGNVTVTFSNPEEAKKYAEKVARKLGGQVSLHNGQFRIK | 2.23 kcal/mol
MQVTWGNVTVTFSNPEEAKKIAEKVARKLGGQVELHNGQFRIK | 1.34 kcal/mol
MQVTWGNVTVTFSNPEEAKKEAEKVARKLGGQVELHNGQFRIK | 0.876 kcal/mol
MQVTWGNVTVTFSNPEEAKKKAEKVARKLGGQVELHNGQFRIK | 0.616 kcal/mol
MQVTWGNVTVTFSNPEEAKKYAEKVARKLGGQVELHIGQFRIK | 1.41 kcal/mol
MQVTWGNVTVTFSNPEEAKKYAEKVARKLGGQVELHYGQFRIK | 1.7 kcal/mol
MQVTWGNVTVTFSNPEEAKKYAEKVMRKLGGQVELHNGQFRIK | 1.2 kcal/mol
MQVTWGNVTVTFSNPEEAKKYAEKVYRKLGGQVELHNGQFRIK | 0.807 kcal/mol
MQVTWGNVTVTFSNPEIAKKYAEKVARKLGGQVELHNGQFRIK | 2.66 kcal/mol

Reference: the MegaScale stability set (Tsuboyama et al. 2023)
